A short description of data set [1]: Isoelectric focusing electrophoresis (pI observed). The conditions noted are these: pH 3 to 10 gel. The class given is physicochemical. As to the method: The isoelectric point of each low-pI TM2 was measured by isoelectric focusing electrophoresis using an XCell SureLock Mini-Cell (Invitrogen). In accordance with the instruction, each low-pI TM2 (500 ng) and an IEF sample buffer (pH 3 to 10 (2×), Invitrogen) were mixed and were added to a polyacrylamide gel (pH 3 to 10, IEF Gel, Invitrogen) at a pH ranging from 3 to 10, followed by electrophoresis at a variable voltage of 100 V for 1 hour, 200 V for 1 hour, and 500 V for 45 minutes in this order.
After the electrophoresis, the gel was shaken in a blotting buffer (0.7% acetic acid) for 10 minutes and then was transferred onto a PVDF membrane at 10 V for 1 hour using an XCell ll Blot Module (Invitrogen). The PVDF membrane was subjected to reaction with anti-TM2 rabbit antibody (PCT/W2006/326260) serving as a primary antibody and with alkaline phosphate-labeled anti-rabbit IgG antibody (BIO-RAD) serving as a secondary antibody, followed by detection of bands with Alkaline Phosphatase Substrate Kit II
The isoelectric point of the high-affinity TM2 was measured by isoelectric focusing electrophoresis using an XCell SureLock Mini-Cell (Invitrogen). […] The electric point of TM2 D40N having replacement of the […] amino acid was higher than that of the wild type TM2 also in the isoelectric focusing electrophoresis.
The isoelectric point of HALU TM2 was measured by isoelectric focusing electrophoresis using an XCell SureLock Mini-Cell (Invitrogen). In accordance with the instruction, bands of each HALU TM2 (4 μg) were detected by CBB staining. […] The observed isoelectric point of TM2 D40N was 9.7, and was reduced to 8.9 after introduction of mutation of R104E and was reduced to 7.3 to 7.5 after further introduction of mutation of K141E.

Data set [2] deals with fibronectin (Homo sapiens, UniProt P02751). Kind of data set: Non-specific binding to fibronectin (fibronectin-immobilized microplate, biotinylated HRP, A450). The conditions noted are these: absorbance at 450 nm. As to the method: The fibronectin-binding of each low-pI TM2 was compared using a microplate to which fibronectin was immobilized. The concentration of fibronectin was adjusted to 50 μg/mL with a fixation solution exclusive for a New ELISA plate, and the fibronectin solution (50 μL) was added to each New ELISA plate (Sumitomo Bakelite), followed by shaking at 37° C. for 4 hours for immobilization. Then, the plate was washed with 0.1% Triton X-100-containing PBS (300 μL) three times and was then dried naturally.
TM2, K26A, K73Q, R104E, K141E, and R104EK141E mutants (50 μL each) were each added to the corresponding well of the plate and left at room temperature for 1 hour. The plate was washed with 300 μL/well of PBST (PBS buffer containing 0.1% Tween 20) three times. Then, biotinylated HRP diluted 5000 times with PBST containing 0.5% BSA was added at 50 μL/well and allowed to react with the mutant at room temperature for 1 hour. After washing with 300 μL/well of PBST three times, 50 μL/well of 1-Step Ultra TMB-ELISA solution was added to each well for color development. After termination of the color development with 50 μL/well of 2M sulfuric acid, absorbance at 450 nm was measured with an Infinite 200 microplate reader.
Non-specific binding of HALU TM2 to fibronectin was also investigated as in paragraph 1-10) of Example 1.

For data set [3], the system named is Salmon sperm DNA. Description: Non-specific binding to DNA (membrane-adsorbed DNA, biotinylated HRP, ECL). To be noted: salmon sperm DNA 10 μg to 1 μg on membrane, 25 μg/mL protein. As to the method: Salmon sperm DNA diluted stepwise from 10 μg to 1 μg with 2×SSC buffer was denatured with an alkali and was adsorbed to Hybond N+membrane (Amersham Biosciences) using Bio-Dot SF (BIO-RAD). After blocking the membrane with 5×Denhardt's solution (0.1% BSA, 0.1% ficoll, 0.1% polyvinylpyrrolidone), the membrane was immersed in 25 μg/mL of low-pI TM2 or the wild-type TM2 at room temperature for 90 minutes. Then, the membrane was washed with a TUBS buffer (TBS buffer containing 0.05% Tween 20) at room temperature for 5 minutes three times. The membrane was blocked with a TBS buffer containing 3% skimmed milk and 0.1% Tween 20 for 1 hour. The membrane was subjected to a reaction with biotinylated horseradise peroxidase (Vector) diluted 5000 times with a TBS buffer containing 3% skimmed milk and 0.1% Tween 20 at room temperature for 1 hour. The membrane was washed with a TBS buffer containing 0.1% Tween 20 again and was then shaken in a solution that is a mixture of reagent 1 and reagent 2 of ECL (Amasham) in the same volumes, followed by detection of the luminol reaction with Las-3000 (FUJIFILM).
The non-specific binding of HALU TM2 to DNA was analyzed by the process in paragraph 1-11) of Example 1.

Data set [4] in a line: Heat stability of protein structure (soluble protein after heating, SDS-PAGE). The data set is classed as physicochemical. To be noted: for Thermal stability (temp. at which 50% of protein was lost): heated for 20 minutes. As to the method: 3-8) Heat Stability of HALU TM2 Protein Structure Each of 0.2 μg/μL TM2 mutant solutions (10 μL (2 μg)) was heated at room temperature, 50, 60, 70, 80, 90, or 99° C. for 20 minutes. Then, the solution was centrifuged at 15000 rpm for 10 minutes, and the soluble protein in the supernatant was suspended in the same volume of 2×SDS sample buffer (250 mM Tris-HCl, pH 6.8, 20% 2-mercaptoethanol, 20% SDS, 20% glycerol). The suspension was heated at 95° C. for 10 minutes, followed by SDS-PAGE. The protein bands were detected by CBB staining A standard curve was prepared using a quantitative marker (LMW ELECTROPHORESIS CALIBRATION KIT; Pharmacia Biotech) with Las-3000 (FUJIFILM) to quantify the protein bands.

Values joined by “and” are separate entries in the source; they are usually repeats but may differ in a detail not shown here. Equal entries are not always repeated.

fibronectin, sequence (P02751 32-2477, species assumed): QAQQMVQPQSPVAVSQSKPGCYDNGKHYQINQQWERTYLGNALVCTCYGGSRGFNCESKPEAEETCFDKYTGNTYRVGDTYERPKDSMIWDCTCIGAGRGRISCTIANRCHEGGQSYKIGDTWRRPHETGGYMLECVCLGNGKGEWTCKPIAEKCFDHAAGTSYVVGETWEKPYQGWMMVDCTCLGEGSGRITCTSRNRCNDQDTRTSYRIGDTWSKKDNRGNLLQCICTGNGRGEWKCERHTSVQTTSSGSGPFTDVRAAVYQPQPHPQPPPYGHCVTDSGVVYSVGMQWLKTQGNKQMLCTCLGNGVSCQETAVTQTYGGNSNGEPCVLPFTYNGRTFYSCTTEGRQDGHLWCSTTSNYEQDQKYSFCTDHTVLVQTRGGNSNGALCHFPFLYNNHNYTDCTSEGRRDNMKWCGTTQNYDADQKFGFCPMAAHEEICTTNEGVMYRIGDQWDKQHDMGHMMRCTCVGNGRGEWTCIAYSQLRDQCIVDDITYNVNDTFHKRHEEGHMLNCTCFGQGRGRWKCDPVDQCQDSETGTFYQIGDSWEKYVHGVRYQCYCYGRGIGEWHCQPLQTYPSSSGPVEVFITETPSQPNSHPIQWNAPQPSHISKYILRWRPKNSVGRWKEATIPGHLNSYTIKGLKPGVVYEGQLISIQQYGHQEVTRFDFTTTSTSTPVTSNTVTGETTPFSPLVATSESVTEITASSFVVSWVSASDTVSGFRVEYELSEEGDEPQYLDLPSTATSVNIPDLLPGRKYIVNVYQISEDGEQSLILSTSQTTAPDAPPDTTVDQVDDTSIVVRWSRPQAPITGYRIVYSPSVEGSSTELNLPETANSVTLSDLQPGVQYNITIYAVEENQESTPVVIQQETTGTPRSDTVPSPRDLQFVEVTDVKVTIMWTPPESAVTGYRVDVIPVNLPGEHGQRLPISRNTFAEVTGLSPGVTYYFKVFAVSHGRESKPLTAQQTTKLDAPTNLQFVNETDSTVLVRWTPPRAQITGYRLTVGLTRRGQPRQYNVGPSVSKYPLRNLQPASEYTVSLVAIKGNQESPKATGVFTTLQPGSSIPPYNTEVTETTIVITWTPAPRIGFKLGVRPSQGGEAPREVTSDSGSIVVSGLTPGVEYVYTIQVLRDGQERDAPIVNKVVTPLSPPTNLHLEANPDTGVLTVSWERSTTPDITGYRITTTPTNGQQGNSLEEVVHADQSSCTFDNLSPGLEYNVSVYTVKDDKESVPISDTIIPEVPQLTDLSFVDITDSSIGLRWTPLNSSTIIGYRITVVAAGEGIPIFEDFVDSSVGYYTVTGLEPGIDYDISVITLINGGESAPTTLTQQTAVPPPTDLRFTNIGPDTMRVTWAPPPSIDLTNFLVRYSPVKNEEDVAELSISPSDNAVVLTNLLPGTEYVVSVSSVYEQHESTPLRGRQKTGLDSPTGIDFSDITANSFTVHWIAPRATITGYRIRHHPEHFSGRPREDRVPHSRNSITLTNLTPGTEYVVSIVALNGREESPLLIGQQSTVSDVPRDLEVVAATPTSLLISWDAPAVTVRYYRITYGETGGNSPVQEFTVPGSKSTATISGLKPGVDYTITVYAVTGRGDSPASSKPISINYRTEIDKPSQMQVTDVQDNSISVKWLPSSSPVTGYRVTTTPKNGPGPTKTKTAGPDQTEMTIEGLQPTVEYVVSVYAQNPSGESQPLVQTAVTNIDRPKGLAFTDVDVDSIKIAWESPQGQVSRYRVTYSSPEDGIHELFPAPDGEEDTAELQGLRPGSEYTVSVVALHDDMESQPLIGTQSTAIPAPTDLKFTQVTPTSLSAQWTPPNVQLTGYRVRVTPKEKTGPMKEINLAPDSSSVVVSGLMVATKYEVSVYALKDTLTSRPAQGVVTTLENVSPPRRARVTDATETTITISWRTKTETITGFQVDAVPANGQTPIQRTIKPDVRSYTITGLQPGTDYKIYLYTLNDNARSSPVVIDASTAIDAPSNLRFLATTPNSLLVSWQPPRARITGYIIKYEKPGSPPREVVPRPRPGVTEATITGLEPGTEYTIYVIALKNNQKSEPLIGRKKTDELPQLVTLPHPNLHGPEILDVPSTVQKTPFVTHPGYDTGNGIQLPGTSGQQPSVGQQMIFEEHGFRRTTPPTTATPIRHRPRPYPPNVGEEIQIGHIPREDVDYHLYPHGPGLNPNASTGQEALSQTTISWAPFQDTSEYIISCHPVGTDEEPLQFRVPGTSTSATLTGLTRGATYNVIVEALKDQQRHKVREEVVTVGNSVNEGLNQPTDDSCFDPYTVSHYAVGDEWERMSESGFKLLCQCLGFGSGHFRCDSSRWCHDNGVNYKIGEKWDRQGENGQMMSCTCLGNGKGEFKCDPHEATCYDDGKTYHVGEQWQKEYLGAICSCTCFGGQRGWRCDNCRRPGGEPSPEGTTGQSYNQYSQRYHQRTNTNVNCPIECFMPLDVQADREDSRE

B1: TM2: wild type tamavidin 2, biotin-binding protein from Pleurotus cornucopiae, amino acid sequence SEQ ID NO: 2 (protein, listed as Pleurotus cornucopiae)
chain: MSDVQSSLTGTWYNELNSKMELTANKDGTLTGKYLSKVGDVYVPYPLSGRYNLQPPAGQGVALGWAVSWENSKIHSATTWSGQFFSESSPVILTQWLLSSSTARGDVWESTLVGNDSFTKTAPTEQQIAHAQLHCRAPRLK
Turning to B1, the pI observed in data set [1] was 8.5 to 8.8; in data set [1] (listed as TM2WT) it was 8.5 to 8.8; in data set [1] (listed as wild type TM2) it was 8.2 to 8.6 and 8.5 to 8.8. Further, the “Binding of fibronectin (A450)” value in data set [2] (listed as wild type TM2) is recorded as 1.3 to 1.4. The “Non-specific binding of DNA” value in data set [3] and in data set [3] (listed as wild type TM2) was “weakly bound” each time. The “Thermal stability (temp. at which 50% of protein was lost)” value in data set [4] was 87.5 °C; in data set [4] (listed as TM2WT), 86 °C.

B2: TM2 D40NR104EK141E: TM2 mutant having mutation of D40N and R104EK141E; SEQ ID NO: 24 (protein)
chain: MSDVQSSLTGTWYNELNSKMELTANKDGTLTGKYLSKVGNVYVPYPLSGRYNLQPPAGQGVALGWAVSWENSKIHSATTWSGQFFSESSPVILTQWLLSSSTAEGDVWESTLVGNDSFTKTAPTEQQIAHAQLHCRAPRLE
modifications: Synthetic TM2 D40NR104EK141E
In data set [1], B2 came in with a pI observed of 7.3 to 7.5. The entries for the “Binding of fibronectin (A450)” value in data set [2] and in data set [2] (listed as D40NR104EK141E) were “extremely low” and 0.12, respectively. In addition, the “Non-specific binding of DNA” value in data set [3] is “lower than the detection limit”. Besides, in data set [4] (heated at 99° C. for 20 minutes), the “protein remained after heating” value came to 78%. Besides, in data set [4], the “Thermal stability (temp. at which 50% of protein was lost)” value turned out to be 99 °C or.

Source of the values: patent US8304236B2, “Modified biotin-binding protein” (Japan Tobacco Inc., priority 2008, dated 2012).
